Assay results taken from a protein production outcome set (Wang et al. 2014).

Assay: label from the status in PepcDB records

Sequence | protein production
MIFMQTSSYHSVTSVIFDKNTQNHTSIAIWLLICCALVFAMVVVGGVTRLTGSGLSIVEWKPIVGTIPPISQGDWEILLEKYRQIPQYEQINKGMTLDEFKGIFWWEYFHRLLGRLIGLVYFVPFVYFMVRKRVDRVLGTKLLGIFVLGGLQGLMGWYMVMSGLADNVYVSQYRLTAHLGLAFIIYAAMFWVATGLLSPVNTHSADPASVRKLGRFARILTGLIFFMVLSGGLVAGIHAGKAYNTFPLMDGFFIPPALFVLEPWYRNFFDNITTVQFDHRMIAWLLMFTIPLFWFKARQLSLSWSGRLACHLLLIMLCTQVALGITTLLLSVPLTFAAAHQAGAVLLFTAALWVCRKLS | failed
MIFVIFAKKSVRFPGKHSAMINGRRMIDIVASKLKNHGEVILYSKDPELNCDMCRVVRDTTDGIITDSVLSAMDRFGTFFAVAGDMPFITDRIIEKILSSYDGKPTFPVHADGLIEPLFGIYTDAIYDAMRDYIESGGESLIGFLSMADIDRVPIAEEEEKFFVSVNYPEDIKKYADLLTLEHHHHHH | failed
MIFVPIIGWLALFGYGVRLVNEFIEGRYEGPIKLDFMEDLKFGFMVFLKSLPFYIIYIIILFAAMYVSEGLGNIISLLLGFFVVPMLAVNFFRKQTVESFFEFSVLNVVRDNLGEYIITVLKQYALVIIFMVLSIVLVGIPGMLFTNSIFVANMYGRLVERKAEASL | failed
MIFWRLLQEFASTTIHGTKGICHADELIEKGQIDKAEQAVLTLLERKPNDANILHLAGVVALRKGQNSRAVALISKALEYAPNESLYYFNLGNAYLADGAIDLGIQALQDATRLDPERMEAWMNLGLALVEAKRHPEAVAAFERLLEIDPDHEADVAFASALVGAGIMLKESAMVDRGISVLESKLRDGYERYAAGVILARALEHRNRLSEAIRQHQALLEANPEHIGIRNNLARCLVQLGRVEEARTHYRLCVKSAPDKYHAFSALLAGLNYEPNLTAAMHEAEVRNWEKQLALPHYPVEPEFPNERDPERPLKIGYLSPDLRQHVVGHNFLPVLEHRNREQFSVFCYHIGEKQDDMSRRIAALADHWRHVHGASDDEVAALIREDRVDILVDLSGHTSHTQPLVFARKPAPVQVSWLGYFDTTGLATMDWFITDPYSSPPDQKQYFSERLYRMPHTRLYYHPYPDMPAVGQLPAKRNGYITFGCLNNLAKINTEVLDLWAQILAASPTSRLLIQTVALCDRLNLERFRALCVERGLDPARLELRPATSLEKFAQTYHQIDIALDPFPFCGGFTSFDALWMGVPVITLEQQRLAGRQTLSMLMNLGLPHLIASNKTDYVSIALELSRDSSEIEQLRSELRSRFLQSPLIDHCRFTRELEKAYRFFWSHWCTEKKQSSARKGISAPMDAYPSRRQISAT | failed
MIGAVIEAGVGITAALISLIEDKQNFLKKYEVSLIILPILVIFFHSMLIVPIYVFSIISGTYLYSKKFYYPFLLLFVSVFLIYIVYGINYPWKSTDIAISAGMIVVMVFDSREKEYVKQNEMNRGTDRKKEIRRDYVQILAGAVIILLIYYYGIDVSRILVTFGSLVLYVTGNFLAGRPDLLLGKLLNSLERSSTKLGIGSLWFASGILIAYSLHDSTAVVMMIVFSIAVGDSLATIIGTSVSSPKLPINRKKSAAGSIAFFAASAAFAIFVLGYAGLFYAAVATITEAVSGFPLDDNLTVPFILSILAYVSKML | failed
MIGITGVTGKLGSKVAQLISEQGISARHLARNPQRAALYDNAELVQVAFENSLEAVEALKGIDVLLMVSASESPNRLQQHFAFLDAAHEAGVKHIVYTSFYNAATEATFTLARDHAKTEKYIKERGFTYTFLRDNFYLDFFLDLCLNNGEIRGPAGNGKVSAVARQDVSEVATTILAKPDKWKNQLLNMTGPADLSMADIVHFVSEQKGEIIPYIDESIEEAYASRKAWPAQDWEYDAWVSTYTAIKEGKQAGVSSDIERVLGRPATSLEQLVKTIK | failed
MIGITQAEAVLTIELQRPERRNALNSQLVEELTQAIRKAGDGSARAIVLTGQGTAFCAGADLSGDAFAADYPDRLIELHKAMDASPMPVVGAINGPAIGAGLQLAMQCDLRVVAPDAFFQFPTSKYGLALDNWSIRRLSSLVGHGRARAMLLSAEKLTAEIALHTGMANRIGTLADAQAWAAEIARLAPLAIQHAKRVLNDDGAIEEAWPAHKELFDKAWGSQDVIEAQVARMEKRPPKFQGA | not failed
MIGKPRGRRGVNLQILPSAMTVLSICAGLTAIKFALEHQPKAAMALIAAAAILDGLDGRVARILDAQSRMGAEIDSLADAVNFGVTPALVLYVSMLSKWPVGWVVVLLYAVCVVLRLARYNALQDDGTQPAYAHEFFVGMPAPAGAVSMIGLLALKMQFGEGWWTSGWFLSFWVTGTSILLVSGIPMKKMHAVSVPPNYAAALLAVLAICAAAAVLAPYLLIWVIIIAYMCHIPFAVRSQRWLAQHPEVWDDKPKQRRAVRRASRRAHPYRPSMARLGLRKPGRRL | failed
MIGNPVIQVPSSLMPSSSMIACPRVSPNGVPYLPPKPRTRHLVVRAASNSDAAHGQPSSDGGKNPLTVVLDVPRNIWRQTLKPLSDFGFGKRSIWEGGVGLFIVSGATLLALSWAWLRGFQMRSKFRKYQTVFELSHASGICTGTPVRIRGVTVGTIIRVNPSLKNIEAVAEIEDDKIIIPRNSLVEVNQSGLLMETMIDIMPRNPIPEPSVGPLHPECGKEGLIVCDRQTIKGVQGVSLDELVGIFTRIGREVEAIGVANTYSLAERAASVIEEARPLLKKIQAMAEDAQPLLSEFRDSGLLKEVECLTRSLTQASDDLRKVNSSIMTPENTELIQKSIYTLVYTLKNVESISSDILGFTGDEATRKNLKLLIKSLSRLL | failed
MIGRHHPILAWAAVVAIGGGVIVLGGIGLPGAGDWLSDWTRAITSRQAGFHRELGQAVRDLAGEGGGAAGVGLLIASLGYGVFHALGPGHGKAVIGAYAATTATGFRRAALLSLAAALIQATTAVVLVDGAFLVMRGGAHWANRTAERWLEPASYAAILGLGLYLGGRGLLAIVRAGRPSPGGDHRPTHPGQARDEEACAHCGHAHGPTADQVAKATEWRSAAMIALAVGIRPCSGAILVLVVANGLGLWAAGILAAYVMALGTAATVALLAVGARASRLPIAGLARRLPLSPALLGGLAGTLAGLILVVLAGLLLRASLLAPVHPLLG | failed
MIGSTSDGLVPGNTDMPATPTTALTALRTPHPPTGGESMHPRTRTAPALLFAVCLTALAAYPAAADDPVPTTERVSVTLDGAQIDDPSYRPQLTSKGGVVYTSDGPVWSTDHNGVSDAYRNSERVSYNMGAARSYDPSACHTARMIAFVSDRTPAGGTTPSVYVRNTPVGKLSYASHGYQGVPFTWAGQPAMSADCQWMAFSATLPATPDHVEQPRVYRYRIYDGTIEQVSPDSADGSRAAVRPSISADGRYVAYQSSIPHPGGPANDSDIYVRDLETGTLEKASVGRHGRPADRASTGPSLSADGRHVAFDSYASNLAPGDTNGTVNVFVRDLDAGTTRLVKGAGRHAYTAEAALSGDGLHLAYVSAGIRGSRGVPAVYLRDLATGRTRLISVDTRGHRNDRAAGNPSVNPDGTAVAFDSASPDLVPGDTNGTVDVFLRRLGSPEALEHHHHHH | not failed
MIIFFLLIIIFLITALLFLLIKELHLSTASNYIMTIFLSLIILFIILKPEVCISASISGAKLFFFSVFPYVFPFLIITNLIICYDGIEIYSKLLGPILCLPQRLPKKASIVLMVSFLCGYPLGAKYAADLYENDIISFSTFERLVNIASNPGPLFIIGAVGTSMLKNKYLGYILLISCYLSCIAMGIILPNKKDDFSTKKTKWNVSEKHSIGTALKTSTENAVKVILQVMSFIIIFSVIIGILKQSVIFKNSEASFIKTFILGIVEMTNGSSMLSSSSFPIELKVITISFLSSFGGLCVIAQIYSFIGKYKISYLKFISLKVIQGVISSIICFLLFKFLYVNNTISTFNANNNFLSPSHFFTVAVILAVLPILIYKIKKTI | failed
MIIPKMSRHALIGGGTGFIGRNLANHLTKKGYDVTVISRMPGAKRITWHELEKNGIPGSVNAVVNATGQNTLDPTRRWTPGFQQNVWNSRINSSKTLAQAIKSAPQVSSFVNLCGVSHYKPSESKVYTEEDQVQGFDYMSRLCLAWEEAAHTGSEQDCKTTILRCGAVVGHGGGMVQSMWLPFKFGVGGPLGNGNQIMPWIHLHDLCSLIQYIIEKPVPGVVNAVAPEITSNLEFSKAFAKALHRPCIFGVPEFVVQAIFGPERAALVLSGAKVKPQKALSSGFKFQYPSVKEAVTQLTLKG | failed
MIIQKIKQFFVGSERTIKAKKNIIASLLVKMLSIIISLLLVPVTLNYLNSYEYGVWLTLSSILVWINYFDIGLGNGLRNRLTEALAIGDYEKGRIYISTTFAILLILMLTIYLLYAFLQHFISWKSILNISTNHAFTDLNYLVLIVFAFFCISFVLKFVGIIYLAKQQPVINDLFGAIANLMSLIVIYILTLVTDGNLTYVAIVFSSAPAVVYLLAYPFTFYYKYPNLAPKISAINFHYAKGLLGLGFQFFIIQVSCLLMFATSNILIAQLCGPEEVTPYNIAYKYFSVITMGFTIVITPFWSAVTDALIKEDFLWIRKGIINMLKVWLFFLLCSLVMLFVASWVYSFWVNMSIPFYLSLLLFVYISIFNWNNMFAYFVNGMGKIRLQLYCSVISGGIFIPLAILLGQLWGLVGIIGSMCFSLLVSAVLMPIQLKLLLAKSATGIWNK | failed
MIITIANEKGGSGKSTLCLNLCVQLLLDKKDIAALDTDSQKSLEVFNNIRSETSLPNFTLFNRTGNITDTLKQMMDKYEYILIDTKGEHSKESQRAMLLSDWVLIPTTPSQLDTAVLLDMLERIRDIQALNENLKACIVMNRIPTIPTLKEKKALIDFINQNNANESVFLMDNLLSERIAYKRSVSEGMGVMEYNDNKAKNEWSQFYDELNGYLRIKK | failed
MIIVGFIGLVLVIILSAVLSLLRARSEALRQQQQFLAQLCPQLERQKTDRSPLNIPVVPQECEPLYHALNEMLAALPAGMGKDKLTGLINRVGLKRTLASLMPITQGTLVLIDIYRFRYVNDLLGFVFGDILLKQFAERLTSLSLKPKLIARLNGDEFFLYYEQSLSQEQLLHLRGRLQVPFNIKDTPVSVRLQIGCLQLAQHHADVSNMLRRLDLALKKARSTRIAIACYSENDDIRQLRELKIIDSLPNGLQRNHLYMVYQPKQDVSSEGCTQVEALIRWEHEELGVISPGEFIPLAECAGMIDLVSHWALEQVLQQQVKWRLAGISVCVALNLSTRDLDSETLPHELDARLKHYQLPPECLMIEITESTLMADLNKAVDTLVQIRRLGIHLAIDDFGTGHSSLAYLKHLPANEVKIDKVFLQDLKPNQPSEYILEASVNIAKKLGYEVTVEGVETQEVRDLLVKMGVDRIQGLCYAKPMRAVELEMHWHRLCPAPKMLSANLGSHP | failed
MIKAVKKRKEGNMLKDLNTNQGLKPWRVESVFYCIVIVLIFIGAFKIAEAVFKPLAISIVLGFLVYPVYTFLARFKVPKFLIVFIIFFLLFSFSYLIFSFVYYSVTVLMKQLPYYQNQLAFIMKDVLSRYKVDSSVINDVNFSGYIYPFLTRAYNEIIGFTSSLVVVFLLLYFLLSEIHVFEMKLDKAFKKPISTRFIGALDTINNQIGKYLGIKILVSCLTGILVFIGLTLFGQDFPLVWAVLSFVFNFIPSIGSILAVFFIVITSLIQFYPNLNIVLYVFIYNTSIQMLIGNILEPKMQGKRLDISPFLLLCFLFFWGWLWGIVGLLISYPFTVIVKVIVDNVSWLKSFSVFLGGSEILSNISHISSKDKEI | failed
MIKDCANRYFLSFVVEVEPNTTIANNQSIGIDLGLKTFAVMSNGEKALSPDYSKHDRKIRKLQKKLARQQKDSKRRNNTRVKIAKLHNQIADTRKDFLHKLSTKIINDNQVIVLEDLNVSGMVKNSRLSRVISLQGWREFRNLCEAKSEKFSRDFRVIDRWQPTSQICSCCGFRWGKIDLSVRSILCLSCGTEQERDENASRNIEMVGMGHRHDLKRAGSDCQTTSVASYCELSRITEVESR | failed
MIKETVFKSFDTPSALEQQLASKIASQLQEAVDARGKASLVVSGGSTPLKLFQLLSMKSIDWSDVYITLADERWVEADADASNERLVREHLLQNRASNAKFRGLKNMFSTAEAGADMAAESLSNFPRPFDVVVLGMGNDGHTCSWFPCSAELENALTTQALCVATNPTTAPHGRITLSKSAILNSRQIYLHLVGEQKLSVYRQALESDDVHAMPIRAVLAQRKTPVDVFWSA | not failed
